Source: PMC4582940

How the values were obtained:
[1] = molecular target: c-Met recombinant chimera (R&D Systems) (UniProt P08581); assay: SPR; c-Met chimera amine-coupled to a CM5 chip (200-1000 RU), Biacore 2000, 25 °C, HBS-EP pH 7.4, 5 uL/min; CSF diluted 1:1 in PBS flowed over; samples: septic nosocomial meningitis (n = 33)
[2] = molecular target: c-Met recombinant chimera (R&D Systems) (UniProt P08581); assay: SPR; c-Met chimera amine-coupled to a CM5 chip (200-1000 RU), Biacore 2000, 25 °C, HBS-EP pH 7.4, 5 uL/min; CSF diluted 1:1 in PBS flowed over; samples: septic community-acquired meningitis (n = 22)

UniProt P08581, sequence (P08581 25-932, change not shown): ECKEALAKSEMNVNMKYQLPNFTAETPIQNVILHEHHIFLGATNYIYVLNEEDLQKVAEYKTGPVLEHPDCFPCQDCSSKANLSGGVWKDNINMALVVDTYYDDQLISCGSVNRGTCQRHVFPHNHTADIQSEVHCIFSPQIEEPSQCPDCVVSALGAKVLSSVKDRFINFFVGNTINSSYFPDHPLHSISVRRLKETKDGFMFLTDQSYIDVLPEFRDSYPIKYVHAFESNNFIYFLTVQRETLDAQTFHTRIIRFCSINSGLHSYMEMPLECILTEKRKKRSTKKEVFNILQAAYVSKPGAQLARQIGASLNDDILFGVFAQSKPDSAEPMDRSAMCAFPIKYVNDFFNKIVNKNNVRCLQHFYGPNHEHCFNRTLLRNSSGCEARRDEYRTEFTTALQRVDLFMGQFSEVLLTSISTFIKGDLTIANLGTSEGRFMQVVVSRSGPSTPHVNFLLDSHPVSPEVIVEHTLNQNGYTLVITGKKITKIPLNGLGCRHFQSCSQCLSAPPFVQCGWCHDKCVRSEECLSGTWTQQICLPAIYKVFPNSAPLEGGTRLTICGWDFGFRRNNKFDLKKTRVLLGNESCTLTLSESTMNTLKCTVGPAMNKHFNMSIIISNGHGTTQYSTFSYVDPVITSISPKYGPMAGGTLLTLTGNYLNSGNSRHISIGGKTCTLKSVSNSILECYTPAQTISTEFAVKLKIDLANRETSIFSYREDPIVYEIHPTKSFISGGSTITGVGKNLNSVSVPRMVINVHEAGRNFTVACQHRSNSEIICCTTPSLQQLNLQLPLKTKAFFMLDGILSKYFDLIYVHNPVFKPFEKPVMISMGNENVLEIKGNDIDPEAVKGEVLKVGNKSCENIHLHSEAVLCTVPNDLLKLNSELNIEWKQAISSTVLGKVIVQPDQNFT

Hepatocyte growth factor (CSF-derived) (ligand)
C-Met binding (RU), median of the group [1]: 27.3 RU | C-Met binding (RU), median of the group [2]: 56 RU
